We go through 1 molecule from patent US20160137730A1 (Novartis, published 2016).

In test [1] the target is T1, recombinant human E-cadherin ECD (human, UniProt P12830 155-709).
T1 construct: extracellular domain; also called E-cadherin (CDH1)
T1 sequence (looked up): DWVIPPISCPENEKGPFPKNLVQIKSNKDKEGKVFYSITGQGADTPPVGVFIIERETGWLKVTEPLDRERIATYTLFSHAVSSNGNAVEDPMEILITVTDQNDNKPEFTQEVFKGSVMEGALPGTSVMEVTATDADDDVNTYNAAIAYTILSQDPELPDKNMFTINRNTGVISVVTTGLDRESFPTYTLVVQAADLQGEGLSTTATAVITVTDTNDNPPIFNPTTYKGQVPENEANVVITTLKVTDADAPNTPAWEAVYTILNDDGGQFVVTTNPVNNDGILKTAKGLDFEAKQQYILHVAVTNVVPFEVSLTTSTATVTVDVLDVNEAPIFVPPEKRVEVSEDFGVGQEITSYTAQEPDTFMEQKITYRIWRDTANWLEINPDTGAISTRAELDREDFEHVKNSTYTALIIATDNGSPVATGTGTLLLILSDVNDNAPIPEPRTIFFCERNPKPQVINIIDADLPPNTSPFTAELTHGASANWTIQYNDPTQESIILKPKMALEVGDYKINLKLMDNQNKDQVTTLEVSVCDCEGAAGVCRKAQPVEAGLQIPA
Put plainly: ELISA, ECD coated on plate, Fab-containing E. coli lysate. The protocol: (§1) To assess specificity of binding to P-cadherin vs E-cadherin and N-cadherin, Maxisorp 384-well plates were o/n at 4° C. with recombinant human E-cadherin or N-cadherin ECD and Fab fragments were assayed using an enzyme-linked immunosorbent assay (ELISA) format. After washing, plates were blocked for 2 h with 5% skim milk in 1×PBST. Fab-containing E. coli lysates were added and binding allowed for 1 h at room temperature (RT). To detect bound Fab fragments, plates were washed 5× with TBST and AP-anti human IgG F(ab′)₂ was added in a 1/2500 dilution. After 1 h at RT, plates were washed 5× with TBST and AttoPhos substrate was added according to the manufacturers specifications. Plates were read in an ELISA reader 5 minutes after adding the substrate.

The target in test [2] is T2, recombinant human N-cadherin ECD (human, UniProt P19022 160-724).
T2 construct: extracellular domain; also called N-cadherin (CDH2)
T2 sequence (looked up): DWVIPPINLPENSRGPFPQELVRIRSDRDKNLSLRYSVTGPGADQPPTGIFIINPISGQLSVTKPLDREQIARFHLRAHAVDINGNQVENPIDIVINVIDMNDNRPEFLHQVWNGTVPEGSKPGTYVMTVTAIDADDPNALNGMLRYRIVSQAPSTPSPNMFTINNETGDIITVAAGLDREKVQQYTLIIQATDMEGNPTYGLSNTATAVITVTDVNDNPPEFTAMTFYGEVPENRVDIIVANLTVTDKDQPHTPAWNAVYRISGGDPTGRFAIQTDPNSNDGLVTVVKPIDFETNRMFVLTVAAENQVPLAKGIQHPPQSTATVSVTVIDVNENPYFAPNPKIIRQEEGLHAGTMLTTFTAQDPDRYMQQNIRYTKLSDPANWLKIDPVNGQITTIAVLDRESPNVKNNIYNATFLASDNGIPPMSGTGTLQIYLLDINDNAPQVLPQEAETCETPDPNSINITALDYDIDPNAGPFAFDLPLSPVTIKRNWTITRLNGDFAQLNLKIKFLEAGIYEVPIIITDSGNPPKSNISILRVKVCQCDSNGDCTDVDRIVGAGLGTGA
The description is as above. The protocol: as §1

B1: NOV169N31Q Fab (Fab, V domains shown)
VH: QVQLQQSGPGLVKPSQTLSLTCAISGDSVSSQSAAWNWIRQSPSRGLEWLGRIYYRSKWYNDYALSVKSRITINPDTSKNQFSLQLNSVTPEDTAVYYCARGEGYGREGFAIWGQGTLVTVSS
VL: DIQMTQSPSSLSASVGDRVTITCRASQTISNTLAWYQQKPGKAPKLLIYAASNLQSGVPSRFSGSGSGTDFTLTISSLQPEDFATYYCQQYLSWFTFGQGTKVEIKR
notes: Expressed in E. coli; also called Fab fragment of NOV169N31Q
Turning to B1, the binding result in test [1] and in test [2] was “no binding” in each case.
